Source: patent US11787846B2, “EphA2 T-cell epitope agonists and uses therefore” (UNIVERSITY OF PITTSBURGH—OF THE COMMONWEALTH SYSTEM OF …, priority 2003, dated 2023)

Legend:
SLR24 RCC cells = assay: IFN-γ ELISPOT, recognition of SLR24 by anti-EphA2 CTL clone CL.142; type: cell-based, human; conditions: B61.Ig 30 μg/ml overnight, relative to untreated cells
EphA2 [1] = biological target: T1, EphA2 (Homo sapiens, UniProt P29317); assay: EphA2 immunoprecipitation and anti-phosphotyrosine Western blot; type: cell-based; design: endogenous in cells; host or cells: PC3 prostate carcinoma cells (A9, A10); SLR24 renal cell carcinoma cells (A10); conditions: PC3 cells; B61.Ig 30 μg/ml or mAb208 8 μg/ml
Description: (§1) Western Blot Analyses. Tumor cells were grown to 80-90% confluency, serum starved overnight, then treated with agonists where indicated. In addition, resected SLR24 lesions were obtained pre- and 24 h post-intratumoral injection with B61-Ig, as outlined below. Tumor samples were analyzed for EphA2 expression via Western blots using the rabbit anti-human EphA2 polyclonal antibody (clone: C-20), Santa Cruz Biotechnology, Inc., Santa Cruz, Calif.). In some experiments, samples were also analyzed for Axl (clone C-20, Santa Cruz Biotechnology, Santa Cruz, Calif.) protein content. Single tumor cell suspensions isolated from confluent tissue culture flasks or from the enzymatic digestion of resected lesions were lysed using 500·mu·l lysis buffer (1% Triton-X, […], 10 mM Tris pH 7.4, 1 mM EDTA, 0.2 mM SOV, 0.5% NP-40) in PBS containing protease inhibitors (Complete, Roche Diagnostic, Mannheim, Germany) for 30 min at 4° C. After centrifugation at 13,500×g for 20 minutes, the supernatant was mixed 1:1 with SDS-PAGE running buffer and proteins separated on 7.5% PAGE gels, prior to electro-blotting onto nitrocellulose membranes (Millipore, Bedford, Mass.). […]

EphA2 [2] = biological target: T1, EphA2; assay: Western blot of EphA2 in resected SLR24 lesions after B61-Ig; type: in vivo, C.B-17 scid/scid mice; design: resected SLR24 lesions were obtained pre- and 24 h post-intratumoral injection with B61-Ig; from tissue; host or cells: SLR24 human RCC xenograft lesions resected from C.B-17 scid/scid mice; conditions: SLR24 tumors resected 24 hours after B61-Ig
Description: as §1, with “C.” for “C. After centrifugation at 13,500×g for 20 minutes, the supernatant was mixed 1:1 with SDS-PAGE running buffer and proteins separated on 7.5% PAGE gels, prior to electro-blotting onto nitrocellulose membranes (Millipore, Bedford, Mass.).”
Hu-SCID Tumor Model. […] Animals were evaluated every 3-4 days for tumor size, with tumor-free status noted on day 40 post-tumor inoculation. […]
EphA2 Agonist Treatment Enhances the efficacy of adoptively transferred anti-EphA2 CD8^+ T Cells in a Hu-SCID Tumor Model. […] Animals were evaluated every 3-4 days for tumor size, with tumor-free status noted on day 40 post-tumor inoculation. […]

SLR24 tumors = assay: Hu-SCID tumor model; type: in vivo, C.B-17 scid/scid mice
EphA2 [3] = biological target: T1, EphA2; assay: Western blot of EphA2 protein degradation in tumor cells; type: cell-based; design: PC3 (left panel) and SLR24 (right panel) cells were treated for 6 hours with either B61.Ig; endogenous in cells; host or cells: PC3 prostate carcinoma cells (A9, A10); SLR24 renal cell carcinoma cells (A10); conditions: PC3 and SLR24 cells; 6 hours; B61.Ig 30 μg/ml or mAb208 8 μg/ml
[4] = single therapy: B61-Ig 50 μg intratumoral d18 or 5×10^6 E883 T cells i.v. d19

B1: B61.Ig: chimeric protein consisting of the ligand binding domain of ephrin-A1 fused with the Fc portion of a mouse IgG antibody (protein)
chain: DRHTVFWNSSNPKFRNEDYTIHVQLNDYVDIICPHYEDHSVADAAMEQYILYLVEHEEYQLCQPQSKDQVRWQCNRPSAKHGPEKLSEKFQRFTPFTLGKEFKEGHSYYYISKPIHQHEDRCLRLKVTVSGKITHSPQAHDNPQEKRLAADDPEVRVLHSIGHS
modifications: left off: a dimerising Fc or GST
CL.142 recognition of SLR24 (IFN-γ ELISPOT) (SLR24 RCC cells): significantly enhanced
EphA2 phosphorylation (phosphotyrosine content) (EphA2 [1]): Induce EphA2 Phosphorylation
EphA2 processing/degradation in situ (EphA2 [2]): promoted EphA2 processing in situ
Benefit vs. B61-Ig treatment alone (SLR24 tumors; B61-Ig combined with CD8+ T cells specific for influenza matrix58-66, data not shown): no enhanced benefit
Resolution of disease (treated mice) (SLR24 tumors; combination: B61-Ig 50 μg intratumoral d18 plus 5×10^6 E883 anti-EphA2 CD8+ T cells i.v. d19, tumor-free status day 40): 5/5
Animals cured (SLR24 tumors; [4]): no animals were cured
SLR24 tumor growth (SLR24 tumors; [4]): delayed growth
EphA2 protein degradation (EphA2 [3]): Degradation
